We go through 23 molecules from article PMC6937242, “Characterization and engineering of broadly reactive monoclonal antibody against hepatitis B virus X protein that blocks its interaction with DDB1” (Scientific Reports, 2019).

Where no end group is shown, it is not given here.

The chains are these.
T1: biotinylated BPS HBx peptide a.a. 89–104 (Hepatitis B virus genotype B, isolate …, UniProt P20975, strain, also: biotinylated)
T1 construct: HBx of hepatitis B virus genotype B isolate BPS, a.a; a.a; also called peptide harboring a.a; source: synthetic peptide (GL Biochem)
T1 chain: LPKVLHKRTLGLSAMS

B1: mouse monoclonal antibody against HBx (anti-HBx 2A7) (antibody, V domains shown)
VH: QVTLKESGPGILQPSQTLSLTCSFSGFSLSTSGMGVVWIRQPSGKGLEWLAHIWWDDDKYYNTALKSGLTISKDTSKNQVFLKIASVDTADTATYYCARMPYYDYDGGVAYWGQGTLVTVSA
VL: DIVMTQSPASLVVSLGQRATISCRASKSVSTSGYSYMYWYQQKPGQPPKLLIYLASNLESGVPARFSGSGSGTDFTLNIHPVEEEDAATYYCQHSRELPLTFGAGTKLELK
notes: 2A7 VH; 2A7 CH, mapped to mouse IGHG1 (immunoglobulin heavy constant gamma 1); 2A7 VL1; 2A7 CK, κ-type light chain constant region; IgG1 subclass, κ light chain (VL1/CK and VH/CH confirmed by LC-MS/MS); also called anti-HBx mAb 2A7; 2A7 mAb; source: SP2/0 hybridoma cell line, purified; also recovered from lysed Huh-7 or HepG2 cells after delivery with TR16-Tat
B2: recombinant 2A7 antibody (antibody, V domains shown)
VH: QVTLKESGPGILQPSQTLSLTCSFSGFSLSTSGMGVVWIRQPSGKGLEWLAHIWWDDDKYYNTALKSGLTISKDTSKNQVFLKIASVDTADTATYYCARMPYYDYDGGVAYWGQGTLVTVSA
VL: DIVMTQSPASLVVSLGQRATISCRASKSVSTSGYSYMYWYQQKPGQPPKLLIYLASNLESGVPARFSGSGSGTDFTLNIHPVEEEDAATYYCQHSRELPLTFGAGTKLELK
notes: as the VH of m1 (2A7 VH); mouse IgG2a heavy chain constant fragment; as the VL of m1 (2A7 VL1); mouse κ light chain constant fragment; source: Expi293F cells, co-transfected, purified from culture supernatant (Protein A)
B3: Igκ-VHVL(2A7)-Fc (scFv, V domains shown)
VH: QVTLKESGPGILQPSQTLSLTCSFSGFSLSTSGMGVVWIRQPSGKGLEWLAHIWWDDDKYYNTALKSGLTISKDTSKNQVFLKIASVDTADTATYYCARMPYYDYDGGVAYWGQGTLVTVSA
VL: DIVMTQSPASLVVSLGQRATISCRASKSVSTSGYSYMYWYQQKPGQPPKLLIYLASNLESGVPARFSGSGSGTDFTLNIHPVEEEDAATYYCQHSRELPLTFGAGTKLELK
notes: as the VH of m1 (2A7 VH); linker, printed as (GlyGlyGlyGlySer)3; as the VL of m1 (2A7 VL1); also called Igκ-VHVL-Fc; 2A7-derived scFv; source: HEK293T, transfected; secreted into supernatant, or in cell lysate; not shown: Fc (human IgG1), C-terminal, kept

The first test has as its target T1, biotinylated BPS HBx peptide a.a. 89–104. Put plainly: ELISA; biotinylated 16-mer HBx peptides captured on streptavidin-coated plates at 500 ng/well in PBS; antibody added, 37 °C for 1 h; HRP anti-mouse pAb; OD450. The settings on record: both partners purified. (ELISA stands for enzyme-linked immunosorbent assay.)
Take B1: the binding result is reported as “binds”. Still for that read-out and setting: then B2, with “binds”.

Another test has as its target T2, bacterially expressed BPS-encoded HBx protein (Hepatitis B virus genotype B, isolate …, UniProt P20975, strain).
T2 construct: HBx (X protein) of hepatitis B virus genotype B isolate BPS; also called recombinant HBx protein; BPS HBx (ELISA); source: bacterially expressed, purified under denaturing conditions
Put plainly: ELISA; recombinant BPS HBx coated at 100 ng/well in bicarbonate/carbonate buffer pH 9.6; purified antibody added, 37 °C for 1 h; HRP anti-mouse pAb; OD450. The settings on record: both partners purified.
Take B1: the binding result is listed as “binds”.

In the next test the target is T3, FLAG-tagged WT (genotype C isolate) HBx (Hepatitis B virus genotype C, isolate …, UniProt P0C686, strain).
T3 construct: 'WT' is here the name of an isolate, not 'wild type'; also called WT HBx; source: HEK293T, transfected, in lysate or in fixed cells; not shown: FLAG, N-terminal, kept
Put plainly: Western blot; lysates of HEK293T cells transfected with FLAG-tagged HBx variants, 48 hours, resolved and blotted; probed with 2A7; anti-FLAG as control; densitometry normalised to anti-FLAG and to BPS HBx. Particulars: one partner purified. (A western blot detects proteins with antibodies after separation by electrophoresis.)
Regarding B1, the binding result was “binds”.

The target of another test is T4, FLAG-tagged wild type BPS HBx (Hepatitis B virus genotype B, isolate …, UniProt P20975, strain).
T4 construct: HBx (X protein) of hepatitis B virus genotype B isolate BPS, 154 a.a; also called FLAG-HBx (wild type); wild-type HBx; source: HEK293T, transfected, in lysate or in fixed cells; HepG2, transfected, in lysate; not shown: FLAG, N-terminal, kept
Put plainly: co-IP; HEK293T co-transfected with Igκ-VHVL-Fc and FLAG-tagged wild type or mutant BPS HBx; lysate; anti-FLAG as capture antibody; blots with anti-hFc and anti-FLAG. The settings on record: partners not purified.
Regarding B3, the binding result is given as “binds”.

The next test deals with T1, biotinylated BPS HBx peptide a.a. 89–104. The experiment in a line: ELISA; biotinylated 16-mer HBx peptides captured on streptavidin-coated plates; secreted Igκ-VHVL-Fc added; HRP anti-human Fc pAb; OD450. Particulars: one partner purified.
With B3, the binding result was “binds”.

The next test deals with mouse monoclonal antibody against HBx (anti-HBx 2A7). The experiment in a line: Western blot with densitometry. Particulars: HEK293T lysates; 2A7 signal adjusted against anti-FLAG signal, normalized against BPS HBx; parent: 100.
Consider “FLAG-tagged wild type BPS HBx 77-79 (3 Ala)”, for which the percent of parent was found to be 97%.

On to “FLAG-tagged wild type BPS HBx 80-82 (3 Ala)”, for which the percent of parent came out at 450%. In the case of “FLAG-tagged wild type BPS HBx 98-100 (3 Ala)”, the percent of parent was found to be 140%. On the same count and under the same terms, the same measure for “FLAG-tagged wild type BPS HBx 101-103 (3 Ala)”: 296%.

Consider “FLAG-tagged wild type BPS HBx 104-106 (3 Ala)”, for which the percent of parent turned out to be 187%.

For the molecule “FLAG-tagged wild type BPS HBx H86A; R87A; N88A”, the percent of parent was found to be 334%. On the same count and under the same terms, the same measure for FLAG-tagged wild type BPS HBx H94A: 0%; for FLAG-tagged wild type BPS HBx K91A: 36%. For the molecule FLAG-tagged wild type BPS HBx K95A, the percent of parent came to 0%. The same measure, in the same setting: the same measure for “FLAG-tagged wild type BPS HBx K95A; R96A; T97A”: 0%.

For the molecule FLAG-tagged wild type BPS HBx L89A, the percent of parent came out at 151%. Still for that read-out and setting: the same measure for “FLAG-tagged wild type BPS HBx L89A; P90A; K91A”: 36%; for FLAG-tagged wild type BPS HBx L93A: 25%. With FLAG-tagged wild type BPS HBx L98A, the percent of parent is 90%. Same read-out and setting: the same measure for FLAG-tagged wild type BPS HBx P90A: 7%. Consider FLAG-tagged wild type BPS HBx R96A, for which the percent of parent was 81%. As to FLAG-tagged wild type BPS HBx T97A, the percent of parent came out at 99%. Still for that read-out and setting: the same measure for “FLAG-tagged wild type BPS HBx V83A; N84A”: 349%. Still for that read-out and setting: then FLAG-tagged wild type BPS HBx V92A, with 2%; and “FLAG-tagged wild type BPS HBx V92A; L93A; H94A”, with 0%.
